B1: KRT15 (parent)
chain: FGGGSTRGGSLLAGGGGFGGGSLS
B2: WDR41 (parent)
chain: HVGELIIWDALDWTMQAYERNFWD

Variants of: B1
Assay: protein stability index of a GFP-peptide fusion (GPS, HEK-293T) (PSI 1-6); higher = more stable
Conditions: c terminus: a fixed tail appended
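Also: lentivirally expressed fusions sorted by FACS into six bins by GFP to DsRed ratio, PSI derived from sequencing read proportions per bin multiplied by bin number.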

Q: Which protein stability index does the source give for FGGGSVRGGSLLAGGGGFGGGSLS here?
A: 1.23

Q: With FGGGSKRGGSLLAGGGGFGGGSLS as the variant, how does the protein stability index read?
A: 1.66

Q: Which protein stability index does the source give for FGGGSTRGGSLLAGGGGFGGGSIS here?
A: 1.61

Q: For FGGGSTRGGSLLAGGGGFGGGSMS, which protein stability index is on record?
A: 2.73

Q: With FGGGSTRGGSLLAGGGGFGGGSQS as the variant, how does the protein stability index read?
A: 1.96

Q: With FGGGSTRGGSLLAGGGGFGGGSGS as the variant, how does the protein stability index read?
A: 2.26

Q: Which protein stability index does the source give for FGGGSTRGGSLLAGGGGFGGSSLS here?
A: 1.95

Q: Which protein stability index does the source give for FGGGSTRGGSLLAGGGGFGGNSLS here?
A: 2.48

Q: With FGGGSTRGGSLLAGGGGFGGDSLS as the variant, how does the protein stability index read?
A: 1.75

Q: For FGGGSTRGGSLLAGGGGFGGISLS, which protein stability index is on record?
A: 1.34

Q: Which protein stability index does the source give for FGGGSTRGGSLLAGGGGFGGPSLS here?
A: 2.65

Q: Which protein stability index does the source give for FGGGSTRGGSLLAGGGGFGGRSLS here?
A: 1.24

Q: With FGGGSTRGGSLLAGGGGFGGLSLS as the variant, how does the protein stability index read?
A: 1.52

Q: Which protein stability index does the source give for FGGGSTRGGSLLAGGGGFGGGLLS here?
A: 1.6

Q: Which protein stability index does the source give for FGGGSTRGGSLLAGGGGFGGGTLS here?
A: 2.05

Q: For FGGGSTRGGSLLAGGGGFGGGHLS, which protein stability index is on record?
A: 2.29

Q: Which protein stability index does the source give for FGGGSTRGGSLLAGGGGFGGGFLS here?
A: 2.49

Q: For FGGGSTRGGSLLAGGGGFGGGRLS, which protein stability index is on record?
A: 2.82

Q: For FGGGSTRGGSLLAGGGGFGGGQLS, which protein stability index is on record?
A: 1.48

Q: With FGGGSTRGGSLLASGGGFGGGSLS as the variant, how does the protein stability index read?
A: 2.43

Q: For FGGGSTRGGSLLAIGGGFGGGSLS, which protein stability index is on record?
A: 1.85

Q: Which protein stability index does the source give for FGGGSTRGGSLLANGGGFGGGSLS here?
A: 2.94

Q: For FGGGSTRGGSLLARGGGFGGGSLS, which protein stability index is on record?
A: 2.42

Q: Which protein stability index does the source give for FGGGSTRGGSLLAPGGGFGGGSLS here?
A: 2.17

Q: With FGGGSTRGGSLLAGRGGFGGGSLS as the variant, how does the protein stability index read?
A: 2.08

Q: For FGGGSTRGGSLLAGCGGFGGGSLS, which protein stability index is on record?
A: 1.56

Q: With FGGGSTRGGSLLAGHGGFGGGSLS as the variant, how does the protein stability index read?
A: 3.02

Q: With FGGGSTRGGSLLAGVGGFGGGSLS as the variant, how does the protein stability index read?
A: 1.34

Q: Which protein stability index does the source give for FGGGSTRGGSLLAGKGGFGGGSLS here?
A: 3.17

Q: With FGGGSTRGGSLLAGAGGFGGGSLS as the variant, how does the protein stability index read?
A: 1.9

Q: With FGQGSTRGGSLLAGGGGFGGGSLS as the variant, how does the protein stability index read?
A: 2.17

Q: With FGFGSTRGGSLLAGGGGFGGGSLS as the variant, how does the protein stability index read?
A: 1.7

Q: Which protein stability index does the source give for FGWGSTRGGSLLAGGGGFGGGSLS here?
A: 1.29

Q: Which protein stability index does the source give for FGMGSTRGGSLLAGGGGFGGGSLS here?
A: 2.74

Q: With FGIGSTRGGSLLAGGGGFGGGSLS as the variant, how does the protein stability index read?
A: 3.22

Q: With FGRGSTRGGSLLAGGGGFGGGSLS as the variant, how does the protein stability index read?
A: 2.26

Q: With FGNGSTRGGSLLAGGGGFGGGSLS as the variant, how does the protein stability index read?
A: 1.93

Q: With FGYGSTRGGSLLAGGGGFGGGSLS as the variant, how does the protein stability index read?
A: 2.2

Q: For FGLGSTRGGSLLAGGGGFGGGSLS, which protein stability index is on record?
A: 2.42

Q: For FGHGSTRGGSLLAGGGGFGGGSLS, which protein stability index is on record?
A: 1.51

Q: Which protein stability index does the source give for FGDGSTRGGSLLAGGGGFGGGSLS here?
A: 1.32

Q: For IGGGSTRGGSLLAGGGGFGGGSLS, which protein stability index is on record?
A: 2.53

Q: For MGGGSTRGGSLLAGGGGFGGGSLS, which protein stability index is on record?
A: 2.08

Q: With YGGGSTRGGSLLAGGGGFGGGSLS as the variant, how does the protein stability index read?
A: 2.25

Q: For SGGGSTRGGSLLAGGGGFGGGSLS, which protein stability index is on record?
A: 3.46

Q: Which protein stability index does the source give for FGGGSTRGGSLLAGGGEFGGGSLS here?
A: 2.74

Q: For FGGGSTRGGSLLAGGGCFGGGSLS, which protein stability index is on record?
A: 1.03

Q: For FGGGSTRGGSLLAGGGSFGGGSLS, which protein stability index is on record?
A: 1.64

Q: With FGGGSTRGGSLLAGGGTFGGGSLS as the variant, how does the protein stability index read?
A: 3.32

Q: With FGGGSTRGGSLLAGGGHFGGGSLS as the variant, how does the protein stability index read?
A: 1.63

Q: With FGGGSTRGGSLLAGGGMFGGGSLS as the variant, how does the protein stability index read?
A: 1.07

Variants of: B2
Assay: as above
Conditions: c terminus: a fixed tail appended

Q: Which protein stability index does the source give for HMGELIIWDALDWTMQAYERNFWD here?
A: 2.59

Q: Which protein stability index does the source give for HQGELIIWDALDWTMQAYERNFWD here?
A: 2.35

Q: For HPGELIIWDALDWTMQAYERNFWD, which protein stability index is on record?
A: 1.54

Q: With HTGELIIWDALDWTMQAYERNFWD as the variant, how does the protein stability index read?
A: 1.92

Q: For HDGELIIWDALDWTMQAYERNFWD, which protein stability index is on record?
A: 2.01

Q: With HFGELIIWDALDWTMQAYERNFWD as the variant, how does the protein stability index read?
A: 2.69

Q: Which protein stability index does the source give for HHGELIIWDALDWTMQAYERNFWD here?
A: 2.44

Q: Which protein stability index does the source give for HIGELIIWDALDWTMQAYERNFWD here?
A: 2.08

Q: With HNGELIIWDALDWTMQAYERNFWD as the variant, how does the protein stability index read?
A: 1.48

Q: With HEGELIIWDALDWTMQAYERNFWD as the variant, how does the protein stability index read?
A: 1.51

Q: For HSGELIIWDALDWTMQAYERNFWD, which protein stability index is on record?
A: 2.47

Q: Which protein stability index does the source give for HRGELIIWDALDWTMQAYERNFWD here?
A: 1.09

Q: With HCGELIIWDALDWTMQAYERNFWD as the variant, how does the protein stability index read?
A: 1.97

Q: With HGGELIIWDALDWTMQAYERNFWD as the variant, how does the protein stability index read?
A: 1.65

Q: With HLGELIIWDALDWTMQAYERNFWD as the variant, how does the protein stability index read?
A: 3.8

Q: For HAGELIIWDALDWTMQAYERNFWD, which protein stability index is on record?
A: 1.58

Q: With HKGELIIWDALDWTMQAYERNFWD as the variant, how does the protein stability index read?
A: 2.35

Q: Which protein stability index does the source give for HVRELIIWDALDWTMQAYERNFWD here?
A: 1.87

Q: For HVLELIIWDALDWTMQAYERNFWD, which protein stability index is on record?
A: 1.72

Q: For HVNELIIWDALDWTMQAYERNFWD, which protein stability index is on record?
A: 1.89

Q: With HVTELIIWDALDWTMQAYERNFWD as the variant, how does the protein stability index read?
A: 2.82

Q: With HVVELIIWDALDWTMQAYERNFWD as the variant, how does the protein stability index read?
A: 4.45

Q: For HVHELIIWDALDWTMQAYERNFWD, which protein stability index is on record?
A: 2.49

Q: For HVEELIIWDALDWTMQAYERNFWD, which protein stability index is on record?
A: 1.87

Q: Which protein stability index does the source give for HVKELIIWDALDWTMQAYERNFWD here?
A: 2.06

Q: With HVDELIIWDALDWTMQAYERNFWD as the variant, how does the protein stability index read?
A: 2.35

Q: For HVSELIIWDALDWTMQAYERNFWD, which protein stability index is on record?
A: 1.84

Q: For HVQELIIWDALDWTMQAYERNFWD, which protein stability index is on record?
A: 2.54

Q: With HVYELIIWDALDWTMQAYERNFWD as the variant, how does the protein stability index read?
A: 2.42

Q: With LVGELIIWDALDWTMQAYERNFWD as the variant, how does the protein stability index read?
A: 2.13

Q: With TVGELIIWDALDWTMQAYERNFWD as the variant, how does the protein stability index read?
A: 2.01

Q: Which protein stability index does the source give for MVGELIIWDALDWTMQAYERNFWD here?
A: 3.52

Q: Which protein stability index does the source give for NVGELIIWDALDWTMQAYERNFWD here?
A: 1.48

Q: With KVGELIIWDALDWTMQAYERNFWD as the variant, how does the protein stability index read?
A: 2.73

Q: Which protein stability index does the source give for EVGELIIWDALDWTMQAYERNFWD here?
A: 1.27

Q: For YVGELIIWDALDWTMQAYERNFWD, which protein stability index is on record?
A: 2.18

Q: For RVGELIIWDALDWTMQAYERNFWD, which protein stability index is on record?
A: 1.58

Q: Which protein stability index does the source give for CVGELIIWDALDWTMQAYERNFWD here?
A: 2.04

Q: Which protein stability index does the source give for SVGELIIWDALDWTMQAYERNFWD here?
A: 3.37

Q: For QVGELIIWDALDWTMQAYERNFWD, which protein stability index is on record?
A: 1.9

Q: For PVGELIIWDALDWTMQAYERNFWD, which protein stability index is on record?
A: 1.49

Q: For IVGELIIWDALDWTMQAYERNFWD, which protein stability index is on record?
A: 4.28

Q: For HVGALIIWDALDWTMQAYERNFWD, which protein stability index is on record?
A: 2.85
